# In EP4711384A1 (WIO Bioscience Co., Ltd., dated 2026):
# T1: human IL-18R1 and IL-18RAP on IL-18 Reporter HEK 293 Cells (human, UniProt Q13478 19-541; O95256 20-599)
# T1 sequence (looked up) 1: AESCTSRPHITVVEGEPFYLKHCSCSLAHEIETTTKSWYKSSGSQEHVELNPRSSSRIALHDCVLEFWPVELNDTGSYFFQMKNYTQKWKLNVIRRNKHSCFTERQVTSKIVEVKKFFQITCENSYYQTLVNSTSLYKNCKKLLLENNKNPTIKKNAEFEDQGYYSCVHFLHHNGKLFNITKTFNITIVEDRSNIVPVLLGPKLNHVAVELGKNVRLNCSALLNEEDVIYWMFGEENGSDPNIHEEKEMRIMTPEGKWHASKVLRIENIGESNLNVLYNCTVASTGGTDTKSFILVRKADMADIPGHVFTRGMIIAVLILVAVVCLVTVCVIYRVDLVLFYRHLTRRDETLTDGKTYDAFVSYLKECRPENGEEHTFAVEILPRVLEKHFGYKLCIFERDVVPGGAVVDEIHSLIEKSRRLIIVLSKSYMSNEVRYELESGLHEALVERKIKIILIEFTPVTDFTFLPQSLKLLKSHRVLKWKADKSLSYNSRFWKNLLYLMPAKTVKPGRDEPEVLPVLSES
# T1 sequence (looked up) 2: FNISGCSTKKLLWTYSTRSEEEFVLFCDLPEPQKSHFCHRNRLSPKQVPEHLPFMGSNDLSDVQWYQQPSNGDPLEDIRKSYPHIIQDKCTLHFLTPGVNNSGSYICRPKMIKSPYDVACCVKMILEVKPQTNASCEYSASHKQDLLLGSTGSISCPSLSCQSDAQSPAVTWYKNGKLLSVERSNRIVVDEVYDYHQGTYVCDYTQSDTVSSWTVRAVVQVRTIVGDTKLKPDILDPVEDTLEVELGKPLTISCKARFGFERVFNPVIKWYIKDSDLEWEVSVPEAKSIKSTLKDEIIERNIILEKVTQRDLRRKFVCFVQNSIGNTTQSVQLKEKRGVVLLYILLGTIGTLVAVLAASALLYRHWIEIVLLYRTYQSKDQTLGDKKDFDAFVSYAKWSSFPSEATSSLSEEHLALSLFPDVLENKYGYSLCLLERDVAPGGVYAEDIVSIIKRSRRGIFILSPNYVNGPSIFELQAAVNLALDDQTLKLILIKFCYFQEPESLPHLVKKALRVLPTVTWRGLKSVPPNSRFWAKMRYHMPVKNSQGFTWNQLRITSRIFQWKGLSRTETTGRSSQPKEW
# Biological target: T1, human IL-18R1 and IL-18RAP on IL-18 …
# Test: cell-based or functional assay
Binder,EC50 [ng/mL],Top530nm
hzWio-02-01-Hm1 (bispecific antibody) EVQLVESGGGLVQPGGSLRLSCAASGHAYDNACMGWFRQAPGKEREGVASIHLRDRTYYADSVKGRFTISRDNSKNTLYLQMNSLRAEDTAVYYCASSNICNALNLQGNTYWGQGTLVTVSSGGGGSEVQLLESGGGLVQPGGSLRLSCAASGYTYGPYCMGWFRQAPGKEREGVAAVGGDARTWYGNSVKGRFTISRDNSKNTLYLQMNSLRAEDTAVYYCAADFDRTVCSDDIYDYTYRGQGTLVTVSSHHHHHH,1.25,0.909
hzWio-02-01-Hm4 (bispecific antibody) EVQLVESGGGLVQPGGSLRLSCAASGTAYHNACMGWFRQAPGKEREGVASIHLRDRTYYADSVKGRFTISRDNSKNTLYLQMNSLRAEDTAVYYCASSNICNALNLQGNTYWGQGTLVTVSSGGGGSEVQLLESGGGLVQPGGSLRLSCAASGYTYGPYCMGWFRQAPGKEREGVAAVGGDARTWYGNSVKGRFTISRDNSKNTLYLQMNSLRAEDTAVYYCAADFDRTVCSDDIYDYTYRGQGTLVTVSSHHHHHH,0.941,1.08
hzWio-02-01-Hm6 (bispecific antibody) EVQLVESGGGLVQPGGSLRLSCAASGTAYDNHCMGWFRQAPGKEREGVASIHLRDRTYYADSVKGRFTISRDNSKNTLYLQMNSLRAEDTAVYYCASSNICNALNLQGNTYWGQGTLVTVSSGGGGSEVQLLESGGGLVQPGGSLRLSCAASGYTYGPYCMGWFRQAPGKEREGVAAVGGDARTWYGNSVKGRFTISRDNSKNTLYLQMNSLRAEDTAVYYCAADFDRTVCSDDIYDYTYRGQGTLVTVSSHHHHHH,1.08,0.894
hzWio-02-01-Hm9 (bispecific antibody) EVQLVESGGGLVQPGGSLRLSCAASGTAYDNACMGWFRQAPGKEREGVAHIHLRDRTYYADSVKGRFTISRDNSKNTLYLQMNSLRAEDTAVYYCASSNICNALNLQGNTYWGQGTLVTVSSGGGGSEVQLLESGGGLVQPGGSLRLSCAASGYTYGPYCMGWFRQAPGKEREGVAAVGGDARTWYGNSVKGRFTISRDNSKNTLYLQMNSLRAEDTAVYYCAADFDRTVCSDDIYDYTYRGQGTLVTVSSHHHHHH,2.14,0.9
hzWio-02-01-Hm10 (bispecific antibody) EVQLVESGGGLVQPGGSLRLSCAASGTAYDNACMGWFRQAPGKEREGVASHHLRDRTYYADSVKGRFTISRDNSKNTLYLQMNSLRAEDTAVYYCASSNICNALNLQGNTYWGQGTLVTVSSGGGGSEVQLLESGGGLVQPGGSLRLSCAASGYTYGPYCMGWFRQAPGKEREGVAAVGGDARTWYGNSVKGRFTISRDNSKNTLYLQMNSLRAEDTAVYYCAADFDRTVCSDDIYDYTYRGQGTLVTVSSHHHHHH,1.27,1.1
hzWio-02-01-Hm12 (bispecific antibody) EVQLVESGGGLVQPGGSLRLSCAASGTAYDNACMGWFRQAPGKEREGVASIHLHDRTYYADSVKGRFTISRDNSKNTLYLQMNSLRAEDTAVYYCASSNICNALNLQGNTYWGQGTLVTVSSGGGGSEVQLLESGGGLVQPGGSLRLSCAASGYTYGPYCMGWFRQAPGKEREGVAAVGGDARTWYGNSVKGRFTISRDNSKNTLYLQMNSLRAEDTAVYYCAADFDRTVCSDDIYDYTYRGQGTLVTVSSHHHHHH,0.68,1.17
hzWio-02-01-Hm13 (bispecific antibody) EVQLVESGGGLVQPGGSLRLSCAASGTAYDNACMGWFRQAPGKEREGVASIHLRHRTYYADSVKGRFTISRDNSKNTLYLQMNSLRAEDTAVYYCASSNICNALNLQGNTYWGQGTLVTVSSGGGGSEVQLLESGGGLVQPGGSLRLSCAASGYTYGPYCMGWFRQAPGKEREGVAAVGGDARTWYGNSVKGRFTISRDNSKNTLYLQMNSLRAEDTAVYYCAADFDRTVCSDDIYDYTYRGQGTLVTVSSHHHHHH,1.12,1.22
hzWio-02-01-Hm14 (bispecific antibody) EVQLVESGGGLVQPGGSLRLSCAASGTAYDNACMGWFRQAPGKEREGVASIHLRDHTYYADSVKGRFTISRDNSKNTLYLQMNSLRAEDTAVYYCASSNICNALNLQGNTYWGQGTLVTVSSGGGGSEVQLLESGGGLVQPGGSLRLSCAASGYTYGPYCMGWFRQAPGKEREGVAAVGGDARTWYGNSVKGRFTISRDNSKNTLYLQMNSLRAEDTAVYYCAADFDRTVCSDDIYDYTYRGQGTLVTVSSHHHHHH,1.26,1.25
hzWio-02-01-Hm15 (bispecific antibody) EVQLVESGGGLVQPGGSLRLSCAASGTAYDNACMGWFRQAPGKEREGVASIHLRDRHYYADSVKGRFTISRDNSKNTLYLQMNSLRAEDTAVYYCASSNICNALNLQGNTYWGQGTLVTVSSGGGGSEVQLLESGGGLVQPGGSLRLSCAASGYTYGPYCMGWFRQAPGKEREGVAAVGGDARTWYGNSVKGRFTISRDNSKNTLYLQMNSLRAEDTAVYYCAADFDRTVCSDDIYDYTYRGQGTLVTVSSHHHHHH,1.54,1.13

# Next, values leading:
EC50 [ng/mL],Top530nm,Binder
2.27,1.1,hzWio-02-01-Hm2 (bispecific antibody) EVQLVESGGGLVQPGGSLRLSCAASGTHYDNACMGWFRQAPGKEREGVASIHLRDRTYYADSVKGRFTISRDNSKNTLYLQMNSLRAEDTAVYYCASSNICNALNLQGNTYWGQGTLVTVSSGGGGSEVQLLESGGGLVQPGGSLRLSCAASGYTYGPYCMGWFRQAPGKEREGVAAVGGDARTWYGNSVKGRFTISRDNSKNTLYLQMNSLRAEDTAVYYCAADFDRTVCSDDIYDYTYRGQGTLVTVSSHHHHHH
1.14,1.08,hzWio-02-01-Hm3 (bispecific antibody) EVQLVESGGGLVQPGGSLRLSCAASGTAHDNACMGWFRQAPGKEREGVASIHLRDRTYYADSVKGRFTISRDNSKNTLYLQMNSLRAEDTAVYYCASSNICNALNLQGNTYWGQGTLVTVSSGGGGSEVQLLESGGGLVQPGGSLRLSCAASGYTYGPYCMGWFRQAPGKEREGVAAVGGDARTWYGNSVKGRFTISRDNSKNTLYLQMNSLRAEDTAVYYCAADFDRTVCSDDIYDYTYRGQGTLVTVSSHHHHHH
1.11,1.01,hzWio-02-01-Hm5 (bispecific antibody) EVQLVESGGGLVQPGGSLRLSCAASGTAYDHACMGWFRQAPGKEREGVASIHLRDRTYYADSVKGRFTISRDNSKNTLYLQMNSLRAEDTAVYYCASSNICNALNLQGNTYWGQGTLVTVSSGGGGSEVQLLESGGGLVQPGGSLRLSCAASGYTYGPYCMGWFRQAPGKEREGVAAVGGDARTWYGNSVKGRFTISRDNSKNTLYLQMNSLRAEDTAVYYCAADFDRTVCSDDIYDYTYRGQGTLVTVSSHHHHHH
1.12,1.03,hzWio-02-01-Hm7 (bispecific antibody) EVQLVESGGGLVQPGGSLRLSCAASGTAYDNACHGWFRQAPGKEREGVASIHLRDRTYYADSVKGRFTISRDNSKNTLYLQMNSLRAEDTAVYYCASSNICNALNLQGNTYWGQGTLVTVSSGGGGSEVQLLESGGGLVQPGGSLRLSCAASGYTYGPYCMGWFRQAPGKEREGVAAVGGDARTWYGNSVKGRFTISRDNSKNTLYLQMNSLRAEDTAVYYCAADFDRTVCSDDIYDYTYRGQGTLVTVSSHHHHHH
1.01,1.51,hzWio-02-01-Hm8 (bispecific antibody) EVQLVESGGGLVQPGGSLRLSCAASGTAYDNACMHWFRQAPGKEREGVASIHLRDRTYYADSVKGRFTISRDNSKNTLYLQMNSLRAEDTAVYYCASSNICNALNLQGNTYWGQGTLVTVSSGGGGSEVQLLESGGGLVQPGGSLRLSCAASGYTYGPYCMGWFRQAPGKEREGVAAVGGDARTWYGNSVKGRFTISRDNSKNTLYLQMNSLRAEDTAVYYCAADFDRTVCSDDIYDYTYRGQGTLVTVSSHHHHHH
1.42,1.02,hzWio-02-01-Hm11 (bispecific antibody) EVQLVESGGGLVQPGGSLRLSCAASGTAYDNACMGWFRQAPGKEREGVASIHHRDRTYYADSVKGRFTISRDNSKNTLYLQMNSLRAEDTAVYYCASSNICNALNLQGNTYWGQGTLVTVSSGGGGSEVQLLESGGGLVQPGGSLRLSCAASGYTYGPYCMGWFRQAPGKEREGVAAVGGDARTWYGNSVKGRFTISRDNSKNTLYLQMNSLRAEDTAVYYCAADFDRTVCSDDIYDYTYRGQGTLVTVSSHHHHHH
1.15,1.11,hzWio-02-01-Hm16 (bispecific antibody) EVQLVESGGGLVQPGGSLRLSCAASGTAYDNACMGWFRQAPGKEREGVASIHLRDRTHYADSVKGRFTISRDNSKNTLYLQMNSLRAEDTAVYYCASSNICNALNLQGNTYWGQGTLVTVSSGGGGSEVQLLESGGGLVQPGGSLRLSCAASGYTYGPYCMGWFRQAPGKEREGVAAVGGDARTWYGNSVKGRFTISRDNSKNTLYLQMNSLRAEDTAVYYCAADFDRTVCSDDIYDYTYRGQGTLVTVSSHHHHHH
